Experimental data: the RNAGym collection of RNA variant scans (doi:10.1073/pnas.2313332121)
This sample holds only a part of the variants without activity.

B1: TPR 5TU (parent)
chain: GGAUCUUCUCGAUCUAACAAAAAAGACAAAUCUGCCACAAAGCUUGAGAGCAUCUUCGGAUGCAGAGGCGGCAGCCUUCGGUGGCGCGAUAGCGCCAACGUUCUCAACUAUGACACGCAAAACGCGUGCUCCGUUGAAUGGAGUUUAUCAUG

Variants of: B1
Test: polymerase ribozyme fitness, log enrichment relative to wild type (log ratio); higher = more active; in vitro selection for triplet polymerase activity
How it was run: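 The heterodimeric triplet polymerase ribozyme's subunits were each mutagenized into PCR-built libraries and transcribed. Every library was selected once, in triplicate, by annealing with a biotinylated primer, the partner subunit and triplets, incubating frozen at −7 °C, gel-excising extended constructs, capturing on streptavidin beads and running RT-PCR. Input and output libraries were Illumina-sequenced, with genotypes kept only at ≥10 input reads and ≥1 read per output. Fitness, from inverse-variance-weighted replicate averages, is the base-2 logarithm of genotype enrichment over wild-type enrichment.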

Question: Which “polymerase ribozyme fitness (log ratio)” value does the source give for GGAUCUUCUCGAUCUAACAAAAAAGACAAAUCUGCCACAAAGCUUGAGAGCAUCUUCGGAUGCAGAGGCCGCAGCCUUCGGUGUCGCGAUAGCGCCAACGUUCUCAUCUAUGACACGCAAAACGCGUGCUCCGUUGAAUGGAGUUUAUCAUG [G70C G84U A107U] here?
Answer: ≤ -4.2

Question: For GGAUCUUCUCGAUCUAACAAAAAAGACAAAUCUGCCACAAAGCUUGAGAGCAUCUUCGGAUGCAGAGGCCGCAGCCUUCGGUGGCGCGAUAGCGCCAACGUUCUCAACUAUGACACGCAAAACGCUUGCUCCGUUGAAUGGAGUUUAUCAUA [G70C G126U G152A], which “polymerase ribozyme fitness (log ratio)” value is on record?
Answer: -3.99

Question: Which “polymerase ribozyme fitness (log ratio)” value does the source give for GGAUCUUCUCGAUCUAACAAAAAAGACAAAUCUGCCACAAAGCUUGAGAGCAUCUUCGGAUGCAGAGGCCGCAGCCUUCGGUGGCACGAUAGCGCCAACGUUCUCAACUAUGAUGCGCAAAACGCGUGCUCCGUUGAAUGGAUUUUAUCCUG [G70C G86A C114U A115G G143U A150C] here?
Answer: ≤ -4.2

Question: For GGAUCUUCUCGAUCUAACAAAAAAGACAAAUCUGCCACAAAGCUUGAGAGCAUCUUCGGAUGCAGAGGCUGCAGCAUUCGGUGGCGCGAUAGCGCCAACGUUCUCAACUAUGACACGCAAAACGCGUGCUCCGUUGAAUGGAGUUUAUCAUG [G70U C76A], which “polymerase ribozyme fitness (log ratio)” value is on record?
Answer: -4.19

Question: With GGAUCUUCUCGAUCUAACAAAAAAGACAAAUCUGCCACAAAGCUUGAGAGCAUCUUCGGAUGCAGAGGCCGCAGCCUUCGGUGGCGCGAUAGCGCUAACAUUCUCAACUAUGACACGGACAACGCGUGCUCCGUUGAAUGGAGUUUAUCAUG [G70C C96U G100A C118G A120C] as the variant, how does the “polymerase ribozyme fitness (log ratio)” value read?
Answer: ≤ -4.2

Question: For GGAUCUUCUCGAUCUAACAAAAAAGACAAAUCUGCCACAAAGCUUGAGAGCAUCUUCGGAUGCAGAGGCCGCAGCCUUCGGUGGCGCUAUAGCGCCCACGUUCUCAACUAUGACACGCAAAACGCGUGCUCCGUUGAAUGGAGUUUAUCAUG [G70C G88U A97C], which “polymerase ribozyme fitness (log ratio)” value is on record?
Answer: ≤ -4.2

Question: Which “polymerase ribozyme fitness (log ratio)” value does the source give for GGAUCUUCUCGAUCUAACAAAAAAGACAAAUCUGCCACAAAGCUUGAGAGCAUCUUCGGAUGCAGAGGCUGCAGCCUUCGGUGGCGAGAUAGCGCCAACGUUCUCAACUAUGACUAGCAAAACGCGUGCUCCGUUGAAUGGAGUUUAUCAAG [G70U C87A A115U C116A U151A] here?
Answer: ≤ -4.2

Question: Which “polymerase ribozyme fitness (log ratio)” value does the source give for GGAUCUUCUCGAUCUAACAAAAAAGACAAAUCUGCCACAAAGCUUGAGAGCAUCUUCGGAUGCAGAGGCUGCAGCCUUCGGUGGUGCCAUAGCGCCAACGUUCUCAACUAUGACACGCAAAACGCGUGCUCCGUUGAAUGGAGUCUAUCAUG [G70U C85U G88C U145C] here?
Answer: ≤ -4.2

Question: With GGAUCUUCUCGAUCUAACAAAAAAGACAAAUCUGCCACAAAGCUUGAGAGCAUCUUCGGAUGCAGAGGCUGCAGCCUUCGGUGGCGCGAUAGCGCCAACGUUCUCAACUAUGACACGCAAACCGCGUGCUCCGUUGAAUGGAGGUUAUCAUG [G70U A122C U144G] as the variant, how does the “polymerase ribozyme fitness (log ratio)” value read?
Answer: -2.06

Question: Which “polymerase ribozyme fitness (log ratio)” value does the source give for GGAUCUUCUCGAUCUAACAAAAAAGACAAAUCUGCCACAAAGCUUGAGAGCAUCUUCGGAUGCAGAGGCCGCAGCCUUCGGUGGCGCUAUGGCGACAACGUUCUCAACUAUGACACGCGAAACGCGUGCUCCGUUGAAUGGAGCUUACCAUG [G70C G88U A91G C95A A119G U144C U148C] here?
Answer: ≤ -4.2

Question: With GGAUCUUCUCGAUCUAACAAAAAAGACAAAUCUGCCACAAAGCUUGAGAGCAUCUUCGGAUGCAGAGGCCGCAGCAUUUGGUGGCGAGAUAGCGCCAACGUUCUCAACUAUGACACGCAAAACGCGUGCUCCGUUGAAUGGAGUUUAUCAUG [G70C C76A C79U C87A] as the variant, how does the “polymerase ribozyme fitness (log ratio)” value read?
Answer: ≤ -4.2

Question: For GGAUCUUCUCGAUCUAACAAAAAAGACAAAUCUGCCACAAAGCUUGAGAGCAUCUUCGGAUGCAGAGGCCGCAGCCUUCGGUGGCGGGAUAGCGCGAACGUUCUCAGCUAUGACACGCAAAACGCGUGCUCCGUUGAAUGGAGUUGAUCAUG [G70C C87G C96G A107G U146G], which “polymerase ribozyme fitness (log ratio)” value is on record?
Answer: ≤ -4.2

Question: Which “polymerase ribozyme fitness (log ratio)” value does the source give for GGAUCUUCUCGAUCUAACAAAAAAGACAAAUCUGCCACAAAGCUUGAGAGCAUCUUCGGAUGCAGAGGCCGCAGCCUUCGGUGGCGCGAUAGCGCCAACGUUGUCAACUAUGACACGCAGAACGCGCGCUCCGCUGAAUGGAGUUUAUCAUG [G70C C103G A120G U127C U134C] here?
Answer: ≤ -4.2

Question: Which “polymerase ribozyme fitness (log ratio)” value does the source give for GGAUCUUCUCGAUCUAACAAAAAAGACAAAUCUGCCACAAAGCUUGAGAGCAUCUUCGGAUGCAGAGGCUGCAGCCUUCGGUGGCGCGAUAGCGCCAACGUUCUCAACUAUGACACGCCAAACGCGUGCUCCGUUGAAUGGAGUUUAUCAUG [G70U A119C] here?
Answer: -2.09

Question: With GGAUCUUCUCGAUCUAACAAAAAAGACAAAUCUGCCACAAAGCUUGAGAGCAUCUUCGGAUGCAGAGGCCGCAGCCUUCGGUCGCGCGAUAGCGCCAACGUUCUUAACUAUGACACGCAAAACGUGUGCUCCGUUGAAUGGAGUUUAUCAUG [G70C G83C C105U C125U] as the variant, how does the “polymerase ribozyme fitness (log ratio)” value read?
Answer: ≤ -4.2

Question: Which “polymerase ribozyme fitness (log ratio)” value does the source give for GGAUCUUCUCGAUCUAACAAAAAAGACAAAUCUGCCACAAAGCUUGAGAGCAUCUUCGGAUGCAGAGGCCGCAGCCUUCGGUGGCGCGAUAGCGCCAACGUUCUCAACUAUGACACGCAAAACGCGUGCUCCGGUGAAUGGAGUUUAUCAUG [G70C U134G] here?
Answer: -4.17

Question: For GGAUCUUCUCGAUCUAACAAAAAAGACAAAUCUGCCACAAAGCUUGAGAGCAUCUUCGGAUGCAGAGGCUGCUGCCUUCGGUGGCGCGGUAGCGGCAACGUUCUCAACUAUGACACGCAAAACGCGUGCUCCGUUGAAUGUAGUUUAUCAUG [G70U A73U A89G C95G G141U], which “polymerase ribozyme fitness (log ratio)” value is on record?
Answer: ≤ -4.2

Question: Which “polymerase ribozyme fitness (log ratio)” value does the source give for GGAUCUUCUCGAUCUAACAAAAAAGACAAAUCUGCCACAAAGCUUGAGAGCAUCUUCGGAUGCAGAGGCCGCAGCCUUCGGUGGCGCGAUAUCGCCAACGUUCUCAACUAUGACACGCAAAACGCGUGCUCCGUUGAAUGGAGUUUAUCAUG [G70C G92U] here?
Answer: -3.01

Question: With GGAUCUUCUCGAUCUAACAAAAAAGACAAAUCUGCCACAAAGCUUGAGAGCAUCUUCGGAUGCAGAGGCCGCAGCCUUCGGUGGCGCGAUAGCGCCAACGUUCUCAACUAUGACACGCAAAACGCGUGCUCCGUUCAAUGGAGUUUAUCAUG [G70C G136C] as the variant, how does the “polymerase ribozyme fitness (log ratio)” value read?
Answer: ≤ -4.2
